Data on one substance can be found in patent US20080268507.

Holding throughout (assay): cleavage_in_vitro
In data set [1] the test system is NPN329 (Nt.CviPII C-terminal truncation) (Chlorella virus NYs-1). The conditions noted are these: 37 C 1 h; same specificity as wild type.
Data set [2] has as its system T1, Nt.CviPII (His+) (Chlorella virus NYs-1).
T1 sequence: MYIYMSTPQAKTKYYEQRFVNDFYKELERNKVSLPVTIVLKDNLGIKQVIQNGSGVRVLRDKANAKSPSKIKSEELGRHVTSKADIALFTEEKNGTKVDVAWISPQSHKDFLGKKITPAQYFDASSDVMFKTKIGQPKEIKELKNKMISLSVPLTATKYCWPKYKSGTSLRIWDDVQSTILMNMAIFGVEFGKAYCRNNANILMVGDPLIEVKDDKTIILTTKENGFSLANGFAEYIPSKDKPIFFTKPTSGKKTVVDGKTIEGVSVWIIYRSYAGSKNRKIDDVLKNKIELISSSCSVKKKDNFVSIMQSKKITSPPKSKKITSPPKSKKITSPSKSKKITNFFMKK
The conditions noted are these: NEBuffer 4 (10 mM Mg acetate), 37 C 1 h.

The subject of data set [3] is NPN297 (Nt.CviPII C-terminal truncation) (Chlorella virus NYs-1). The settings on record: 37 C 1 h; same specificity as wild type.

As for pUC19 plasmid, the activity in data set [1] was 1400 units/mg; in data set [2], 9410 units/mg; in data set [3], 2600 units/mg.
